From patent publication US20160200813A1 (AbbVie / Abbott, published 2016)
*1 amine or outer side, *2 acyl side, *3 side chain or, on linkers, in order; H or OH if unused. Bridges are numbered along the chain shown (N, C = ends). Where no end group is shown, it is not given here. Lys(Aoa) = NOCC(=O)NCCCC[C@H](N[*:1])C(=O)[*:2]

How the values were obtained:
[1] = target: T1, Human LRP-8 (isoform 3) expressed on cells (human, UniProt Q14114 33-963); assay: cell-based or functional assay
[2] = target: T2, Cynomolgus monkey LRP-8 expressed on HEK293 cells (cynomolgus monkey); assay: cell-based MSD, 1 to 5, cyno-LRP8-HEK293
T2 construct: whole, on cells; also called cyno LRP-8; cLRP-8

[3] = target: T2, Cynomolgus monkey LRP-8 expressed on …; assay: cell-based MSD, 1 to 25, cyno-LRP8-HEK293
[4] = target: T1, Human LRP-8 (isoform 3) expressed on …; assay: cell-based MSD, 1 to 5, human_LRP8_HEK293
[5] = target: T2, Cynomolgus monkey LRP-8 expressed on …; assay: cell-based MSD, 1 to 125, cyno-LRP8-HEK293
[6] = target: T1, Human LRP-8 (isoform 3) expressed on …; assay: cell-based MSD, 1 to 25, human_LRP8_HEK293
[7] = target: T1, Human LRP-8 (isoform 3) expressed on …; assay: cell-based MSD, 1 to 125, human_LRP8_HEK293
[8] = target: T2, Cynomolgus monkey LRP-8 expressed on …; assay: cell-based binding on CYNO LRP8-HEK293, supernatant 1:5
[9] = target: T2, Cynomolgus monkey LRP-8 expressed on …; assay: cell-based binding on CYNO LRP8-HEK293, supernatant 1:25
[10] = target: T2, Cynomolgus monkey LRP-8 expressed on …; assay: cell-based binding on CYNO LRP8-HEK293, supernatant 1:125
[11] = target: T2, Cynomolgus monkey LRP-8 expressed on …; assay: FACS, cyno LRP8 cells
[12] = target: T3, CR1 cyclic peptide of human LRP-8 (human, disulfide 1-13); assay: ELISA using CR1 peptide
T3 construct: also called CR1 peptide; conjugated human LRP-8 CR1 peptide
T3 peptide: CEKDQFQSRNERCIPSVWR-{Lys(Aoa)-NH2}

[13] = target: T1, Human LRP-8 (isoform 3) expressed on …; assay: cell-based or functional assay; remark: listed apart in the source
[14] = target: T1, Human LRP-8 (isoform 3) expressed on …; assay: huLRP-8 cell-based binding
[15] = target: T2, Cynomolgus monkey LRP-8 expressed on …; assay: cell-based ECL-MSD, 10 ug/ml Ab, cyno-LRP-8-HEK293
Experimental: (§1) A cell-based ECL-MSD binding assay was used to determine antibody affinity. HEK293 cells overexpressing human, monkey or mouse LRP-8 were added onto MSD 96-well plate (MSD Cat# L15XB-3/L11XB-3) and incubated at 37° C. for one hour. Cells were blocked using 15% FBS (Hyclone, Thermo Scientific Cat# SH300700.03) at RT for 30 minutes with mild agitation. Plates were washed with DPBS three times and Abs or DVD-Ig binding proteins were added to the well. After incubation at RT for one hour, plates were washed with DPBS and goat anti-human or anti-mouse Sulfo TAG (MSD Cat#R32AJ-1) was added. Plates were incubated at RT for one hour, washed with DPBS and immersed in MSD read buffer (MSD Cat#R92TD-2) before reading on a MSD SECTOR Imager 6000. EC50 values were obtained using Xlfit4 software system.

[16] = target: T1, Human LRP-8 (isoform 3) expressed on …; assay: cell-based ECL-MSD, 10 ug/ml Ab, human_LRP-8_HEK293
Experimental: as §1

T1 sequence (Q14114 other isoform, or with tags, fused parts or gaps limits assumed): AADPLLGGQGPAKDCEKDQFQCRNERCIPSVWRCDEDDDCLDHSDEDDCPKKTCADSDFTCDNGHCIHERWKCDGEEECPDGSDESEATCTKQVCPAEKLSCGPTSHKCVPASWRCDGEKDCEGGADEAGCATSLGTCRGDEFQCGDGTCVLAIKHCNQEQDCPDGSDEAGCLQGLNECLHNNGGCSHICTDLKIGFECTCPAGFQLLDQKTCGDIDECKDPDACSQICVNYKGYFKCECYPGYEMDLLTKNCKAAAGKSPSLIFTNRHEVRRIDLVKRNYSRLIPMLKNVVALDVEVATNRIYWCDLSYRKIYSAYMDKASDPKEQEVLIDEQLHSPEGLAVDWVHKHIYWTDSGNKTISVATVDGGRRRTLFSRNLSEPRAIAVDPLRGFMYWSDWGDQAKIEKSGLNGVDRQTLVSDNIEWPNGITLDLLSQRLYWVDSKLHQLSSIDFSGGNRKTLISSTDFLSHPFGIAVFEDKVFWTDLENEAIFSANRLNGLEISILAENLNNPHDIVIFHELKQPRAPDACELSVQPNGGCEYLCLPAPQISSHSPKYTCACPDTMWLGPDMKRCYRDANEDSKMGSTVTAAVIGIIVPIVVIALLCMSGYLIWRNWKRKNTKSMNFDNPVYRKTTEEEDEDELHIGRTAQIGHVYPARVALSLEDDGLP

B1: BGK-7F7 (GENOVAC candidate clone of Table 17) (antibody, V domains shown)
VH: QVTLKESGPGILQPSQTLSLTCTFSGFSLSTYGLGVGWIRQPSGKGLEWLANIWWDDAKYYNPSLKNRLTISKDTSNNQAFLKIPNVDTADTARYYCARTTKPYYFDYWGQGVMVTVSS
VL: HFVLAQPNSVSTNLGSTVKLSCKRSTANIGSNYVNWYQQHEGRSPTTLIYRDDRRPDGVPDRFSGSIDRSSNSALLTINNVQTEDEADYFCQSYSSGINIFGGGTKLTVL
notes: here the candidate from rat immunization before chimerization, tested at dilutions
- Endocytosis, fold over-IgG [1]: 5.18 fold
- Transcytosis, fold over-IgG [1]: 2.17 fold
- fold over IgG control [2]: 2 fold
- fold over IgG control [3]: 1.9 fold
- fold over IgG control [4]: 5 fold
- fold over IgG control [5]: 1.8 fold
- fold over IgG control [6]: 5.2 fold
- fold over IgG control [7]: 5 fold
- fold over isotype control [8]: 3.23 fold
- fold over isotype control [9]: 1.86 fold
- fold over isotype control [10]: 1.5 fold

B2: anti-LRP-8 antibody CL-135359 (antibody, V domains shown)
VH: EVQLVQSGGGLVQPGGSLRLSCAASGFTFSSYAMSWVRQAPGKGLEWVSVISCSGGTTYYADSVKGRFTISRDNSKNTLYLQMNSLRAEDTAVYYCARNGGQFDLWGQGTLVTVSS
VL: DIQMTQSPSSLSASVGDRVTITCRASQGICTYLNWYQQKPGKAPKLLIYAASSLQSGVPSRFSGSGSGTDFTLTISSLQPEDFATYYCQQSYNPPLTFGGGTKVEIK
- FACS (ratio +/-) [11]: 12.6 ratio
- OD450 [12]: 0.1 OD450

B3: anti-LRP-8 ML199-11H1.5B2 murine antibody (muFc) (antibody, V domains shown)
VH: EVQLVESGGDLVKPGGSLKLSCAASRFTFSNYGMSWVRQTPDKRLEWVATISSGGRYTYYPDSVKGRFTISRDNAKNTLYLQMSSLRSEDTAMYYCARDYLYAMDYWGQGTSVTVSS
VL: DVVMTQTPLSLPVSLGDQASISCRSSQSLVYSNGNTYLHWYLQKPGQSPKVLMYKVSNRFSGVSDRFSGSGSGTDFTLKISRVEAEDLGVYFCSQSTHVPLTFGAGTKLELK
notes: Mouse Fc form (muFc); also called ML199-11H1-5B2 muFc; anti-LRP-8,11H1.5B2
- Endocytosis, fold over IgG control [13]: 1.7 fold
- Transcytosis, fold over IgG control [13]: 2 fold
- EC50 [14]: 400 pM
- fold over mIgG control [15]: 7 fold
- fold over mIgG control [16]: 15.1 fold
